Reference: publication PMC9771472, “Tenuous transcriptional threshold of human sex determination. II. SRY exploits water-mediated clamp at the edge of ambiguity”

How the values were obtained:
[1] = biological target: T1, SRY HMG box WT (human, UniProt Q05066 57-141); assay: steady-state FRET; reference; Kd values in Table S7 not in material; FRET: 10 mM potassium phosphate, 10 mM Tris-HCl, 140 mM KCl, pH 8.0, 15 and 37 C, 25 nM DNA (Kd); sf-FRET 1 uM complex + 20 uM unlabelled DNA at 10, 15, 25, 37; details: protein: recombinant; label: 5'-fluorescein (upper strand); 5'-TAMRA (lower strand), hexanyl linkers; blunt
[2] = biological target: T2, SRY HMG box Y72W (human, UniProt Q05066 57-141, Y127W); assay: steady-state FRET; stopped-flow FRET; high affinity retained; slight koff increase; FRET: 10 mM potassium phosphate, 10 mM Tris-HCl, 140 mM KCl, pH 8.0, 15 and 37 C, 25 nM DNA (Kd); sf-FRET 1 uM complex + 20 uM unlabelled DNA at 10, 15, 25, 37; details: protein: recombinant; label: 5'-fluorescein (upper strand); 5'-TAMRA (lower strand), hexanyl linkers; blunt
[3] = biological target: SRY HMG box Y72C (human, UniProt Q05066 57-141, Y127C); assay: stopped-flow FRET; near-native affinity (Kd from companion paper); koff 26(+/-1.3)-fold faster than WT at 10 C; FRET: 10 mM potassium phosphate, 10 mM Tris-HCl, 140 mM KCl, pH 8.0, 15 and 37 C, 25 nM DNA (Kd); sf-FRET 1 uM complex + 20 uM unlabelled DNA at 10, 15, 25, 37; details: protein: recombinant; label: 5'-fluorescein (upper strand); 5'-TAMRA (lower strand), hexanyl linkers; blunt
[4] = biological target: SRY HMG box Y72H (human, UniProt Q05066 57-141, Y127H); assay: stopped-flow FRET; near-native affinity (Kd from companion paper); koff 14(+/-0.38)-fold faster than WT at 10 C; FRET: 10 mM potassium phosphate, 10 mM Tris-HCl, 140 mM KCl, pH 8.0, 15 and 37 C, 25 nM DNA (Kd); sf-FRET 1 uM complex + 20 uM unlabelled DNA at 10, 15, 25, 37; details: protein: recombinant; label: 5'-fluorescein (upper strand); 5'-TAMRA (lower strand), hexanyl linkers; blunt
[5] = biological target: T3, SRY HMG box Y72F (human, UniProt Q05066 57-141, Y127F); assay: steady-state FRET; stopped-flow FRET; native-like affinity; koff about 4-fold faster than WT at 37 C, compensated by kon; FRET: 10 mM potassium phosphate, 10 mM Tris-HCl, 140 mM KCl, pH 8.0, 15 and 37 C, 25 nM DNA (Kd); sf-FRET 1 uM complex + 20 uM unlabelled DNA at 10, 15, 25, 37; details: protein: recombinant; label: 5'-fluorescein (upper strand); 5'-TAMRA (lower strand), hexanyl linkers; blunt
[6] = biological target: SRY HMG box Y72A (human, UniProt Q05066 57-141, Y127A); assay: CD; 25 uM each; least shifted toward A-DNA; FRET: 10 mM potassium phosphate, 10 mM Tris-HCl, 140 mM KCl, pH 8.0, 15 and 37 C, 25 nM DNA (Kd); sf-FRET 1 uM complex + 20 uM unlabelled DNA at 10, 15, 25, 37; details: protein: recombinant; blunt
[7] = biological target: T2, SRY HMG box Y72W; assay: CD; 25 uM each; A-form features in bound DNA; FRET: 10 mM potassium phosphate, 10 mM Tris-HCl, 140 mM KCl, pH 8.0, 15 and 37 C, 25 nM DNA (Kd); sf-FRET 1 uM complex + 20 uM unlabelled DNA at 10, 15, 25, 37; details: protein: recombinant; blunt
[8] = biological target: T3, SRY HMG box Y72F; assay: NMR (1H imino, NOESY, 15N HSQC); CD; 1:1, 25 C, 10 mM K-phosphate pH 7.4, 50 mM KCl (NMR); FRET: 10 mM potassium phosphate, 10 mM Tris-HCl, 140 mM KCl, pH 8.0, 15 and 37 C, 25 nM DNA (Kd); sf-FRET 1 uM complex + 20 uM unlabelled DNA at 10, 15, 25, 37; details: protein: recombinant; blunt
[9] = biological target: T1, SRY HMG box WT; assay: as above; details: protein: recombinant; blunt

Measured: binding result

T2 sequence (Q05066 57-141 Y127W): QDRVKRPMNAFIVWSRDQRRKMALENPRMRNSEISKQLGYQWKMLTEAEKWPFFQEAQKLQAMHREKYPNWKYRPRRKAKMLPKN
T1 sequence (Q05066 57-141): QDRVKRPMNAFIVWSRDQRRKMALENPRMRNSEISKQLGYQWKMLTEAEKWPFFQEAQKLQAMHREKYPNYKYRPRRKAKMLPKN
T3 sequence (Q05066 57-141 Y127F): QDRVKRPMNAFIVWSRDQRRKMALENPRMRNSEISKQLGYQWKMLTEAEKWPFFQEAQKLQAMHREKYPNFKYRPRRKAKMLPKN
Sequence of SRY HMG box Y72H (Q05066 57-141 Y127H): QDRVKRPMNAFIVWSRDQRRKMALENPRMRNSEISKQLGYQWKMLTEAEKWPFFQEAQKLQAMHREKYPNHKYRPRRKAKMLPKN
Sequence of SRY HMG box Y72A (Q05066 57-141 Y127A): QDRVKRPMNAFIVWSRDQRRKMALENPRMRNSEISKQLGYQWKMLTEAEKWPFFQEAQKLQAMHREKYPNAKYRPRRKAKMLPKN
Sequence of SRY HMG box Y72C (Q05066 57-141 Y127C): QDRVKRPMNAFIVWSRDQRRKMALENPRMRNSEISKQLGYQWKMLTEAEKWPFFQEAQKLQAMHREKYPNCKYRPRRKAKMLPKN

B1: 15-bp SRY site, FRET-labelled (dsDNA)
DNA 1: TCGGTGATTGTTCAG
DNA 2: CTGAACAATCACCGA
binds: [1] | [2] | [3] | [4] | [5]

B2: 15-bp SRY site, unlabelled (dsDNA)
DNA 1: TCGGTGATTGTTCAG
DNA 2: CTGAACAATCACCGA
binds: [6] | [7] | [8] | [9]
